Molecular target: ASFV RNA polymerase subunit vRPB3-11 (African swine fever virus, strain BA71V, UniProt Q65184 1-359)
Assay: cryo-EM structure
Settings: both partners purified

Sequence of ASFV RNA polymerase subunit vRPB3-11 (Q65184 whole entry): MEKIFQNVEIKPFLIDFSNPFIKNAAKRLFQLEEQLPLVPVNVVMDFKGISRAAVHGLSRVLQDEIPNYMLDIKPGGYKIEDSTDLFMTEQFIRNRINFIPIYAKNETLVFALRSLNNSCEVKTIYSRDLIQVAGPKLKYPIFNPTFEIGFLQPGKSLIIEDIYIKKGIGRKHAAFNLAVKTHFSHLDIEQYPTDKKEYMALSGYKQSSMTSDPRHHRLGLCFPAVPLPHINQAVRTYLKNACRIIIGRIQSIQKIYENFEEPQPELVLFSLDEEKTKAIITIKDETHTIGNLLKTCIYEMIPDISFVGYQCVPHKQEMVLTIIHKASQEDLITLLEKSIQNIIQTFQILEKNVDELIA

B1: ASFV RNA polymerase subunit vRPB10 (natural protein)
chain: MLIPVVCFTCGFPIGTYAAIFDKARTEYIKTKMDGTLPQNIPLDASLQIELKDLITALGIPMRVCCRTHLITTLDYRKYY
- binding result: binds

Reference: PMC10881513 (Nature Communications, 2024)
